Source: publication PMC11746154

B1: LexA-Rec102 [S. cerevisiae] / Gal4AD-Spo11 [S. cerevisiae] (parent)
chain 1: MALEGLRKKYKTRQELVKALTPKRRSIHLNSNGHSNGTPCSNADVLAHIKHFLSLAANSLEQHQQPISIVFQNKKKKGDTSSPDIHTTLDFPLNGPHLCTHQFKLKRCAILLNLLKVVMEKLPLGKNTTVRDIFYSNVELFQRQANVVQWLDVIRFNFKLSPRKSLNIIPAQKGLVYSPFPIDIYDNILTCENEPKMQKQTIFPGKPCLIPFFQDDAVIKLGTTSMCNIVIVEKEAVFTKLVNNYHKLSTNTMLITGKGFPDFLTRLFLKKLEQYCSKLISDCSIFTDADPYGISIALNYTHSNERNAYICTMANYKGIRITQVLAQNNEVHNKSIQLLSLNQRDYSLAKNLIASLTANSWDIATSPLKNVIIECQREIFFQKKAEMNEIDARIFEYK
chain 2: MARDITFLTVFLESCGAVNNDEAGKLLSAWTSTVRIEGPESTDSNSLYIPLLPPGMLKIKLNFKMNDRLVTEEQELFTKLREIVGSSIRFWEEQLFYQVQDVSTIENHVILSLKCTILTDAQISTFISKPRELHTHAKGYPEIYYLSELSTTVNFFSKEGNYVEISQVIPHFNEYFSSLIVSQLEFEYPMVFSMISRLRLKWQQSSLAPISYALTSNSVLLPIMLNMIAQDKSSTTAYQILCRRRGPPIQNFQIFSLPAVTYNK
B2: Gal4AD-Spo11 [S. cerevisiae] / Rec104-LexA [S. cerevisiae] (parent)
chain 1: B1 chain 1
chain 2: MSIEEEDTNKITCTQDFLHQYFVTERVSIQFGLNNKTVKRINKDEFDKAVNCIMSWTNYPKPGLKRTASTYLLSNSFKKSATVSLPFILGDPVCMPKRVESNNNDTCLLYSDTLYDDPLIQRNDQAGDEIEDEFSFTLLRSEVNEIRPISSSSTAQILQSDYSALMYERQASNGSIFQFSSP

Variants of: B1
Experiment: Y2H quantitative β-galactosidase assay
Conditions: with Gal4AD-Spo11 [S. cerevisiae]; parent: 1; read off a plot

Variant	response (normalized β-gal units)
chain 2 MARDITFLTVFLESCGAVNNDEAGKLLSAWTSTVRIEGPESTDSNSLYIPLLPPGMLKIKLNFKMNDRLVTEEQELFTKLREIVGSSIRFWEEQLFYQVQDVSTIENHVILSLKCTILTDAQISTFISKPRELHTHAKGYPEIYYLSELSTTVNFFSKEGNYVEISQVIPHFNEYFSSLIVSQLEFEYPMVFSMISRARLKWQQSSLAPISYALTSNSVLLPIMLNMIAQDKSSTTAYQILCRRRGPPIQNFQIFSLPAVTYNK [chain 2 L198A]	0.15
chain 2 MARDITFLTVFLESCGAVNNDEAGKLLSAWTSTVRIEGPESTDSNSLYIPLLPPGMLKIKLNFKMNDRLVTEEQELFTKLREIVGSSIRFWEEQLFYQVQDVSTIENHVILSLKCTILTDAQISTFISKPRELHTHAKGYPEIYYLSELSTTVNFFSKEGNYVEISQVIPHFNEYFSSLIVSQLEFEYPMVFSMASRLRLKWQQSSLAPISYALTSNSVLLPIMLNMIAQDKSSTTAYQILCRRRGPPIQNFQIFSLPAVTYNK [chain 2 I195A]	0.2
chain 2 MARDITFLTVFLESCGAVNNDEAGKLLSAWTSTVRIEGPESTDSNSLYIPLLPPGMLKIKLNFKMNDRLVTEEQELFTKLREIVGSSIRFWEEQLFYQVQDVSTIENHVILSLKCTILTDAQISTFISKPRELHTHAKGYPEIYYLSELSTTVNFFSKEGNYVEISQVIPHFNEYFSSLIVSQLEFEYPMVFSMISRLRLKWQQSSLAPISYALTSNSVLLPIMLNMIAQDKSSTTAYQILCRRRGPPAQNFQIFSLPAVTYNK [chain 2 I249A]	0.9

Variants of: B2
Experiment: Y2H β-galactosidase assay
Conditions: with Rec104-LexA [S. cerevisiae]; parent: 1; read off a plot

Variant	response (normalized β-gal units)
chain 1 MALEGLDKKYKTRQELVKALTPKRRSIHLNSNGHSNGTPCSNADVLAHIKHFLSLAANSLEQHQQPISIVFQNKKKKGDTSSPDIHTTLDFPLNGPHLCTHQFKLKRCAILLNLLKVVMEKLPLGKNTTVRDIFYSNVELFQRQANVVQWLDVIRFNFKLSPRKSLNIIPAQKGLVYSPFPIDIYDNILTCENEPKMQKQTIFPGKPCLIPFFQDDAVIKLGTTSMCNIVIVEKEAVFTKLVNNYHKLSTNTMLITGKGFPDFLTRLFLKKLEQYCSKLISDCSIFTDADPYGISIALNYTHSNERNAYICTMANYKGIRITQVLAQNNEVHNKSIQLLSLNQRDYSLAKNLIASLTANSWDIATSPLKNVIIECQREIFFQKKAEMNEIDARIFEYK [chain 1 R7D]	0.24
chain 1 MALEGLAKKYKTRQELVKALTPKRRSIHLNSNGHSNGTPCSNADVLAHIKHFLSLAANSLEQHQQPISIVFQNKKKKGDTSSPDIHTTLDFPLNGPHLCTHQFKLKRCAILLNLLKVVMEKLPLGKNTTVRDIFYSNVELFQRQANVVQWLDVIRFNFKLSPRKSLNIIPAQKGLVYSPFPIDIYDNILTCENEPKMQKQTIFPGKPCLIPFFQDDAVIKLGTTSMCNIVIVEKEAVFTKLVNNYHKLSTNTMLITGKGFPDFLTRLFLKKLEQYCSKLISDCSIFTDADPYGISIALNYTHSNERNAYICTMANYKGIRITQVLAQNNEVHNKSIQLLSLNQRDYSLAKNLIASLTANSWDIATSPLKNVIIECQREIFFQKKAEMNEIDARIFEYK [chain 1 R7A]	0.85
chain 1 MALEGLRAKYKTRQELVKALTPKRRSIHLNSNGHSNGTPCSNADVLAHIKHFLSLAANSLEQHQQPISIVFQNKKKKGDTSSPDIHTTLDFPLNGPHLCTHQFKLKRCAILLNLLKVVMEKLPLGKNTTVRDIFYSNVELFQRQANVVQWLDVIRFNFKLSPRKSLNIIPAQKGLVYSPFPIDIYDNILTCENEPKMQKQTIFPGKPCLIPFFQDDAVIKLGTTSMCNIVIVEKEAVFTKLVNNYHKLSTNTMLITGKGFPDFLTRLFLKKLEQYCSKLISDCSIFTDADPYGISIALNYTHSNERNAYICTMANYKGIRITQVLAQNNEVHNKSIQLLSLNQRDYSLAKNLIASLTANSWDIATSPLKNVIIECQREIFFQKKAEMNEIDARIFEYK [chain 1 K8A]	0.72

Same assay, conditions: with Gal4AD-Spo11 [S. cerevisiae]; parent: 1; read off a plot

Variant	response (normalized β-gal units)
chain 2 MSIEEEDTNKITCTQDFLHAYFVTERVSIQFGLNNKTVKRINKDEFDKAVNCIMSWTNYPKPGLKRTASTYLLSNSFKKSATVSLPFILGDPVCMPKRVESNNNDTCLLYSDTLYDDPLIQRNDQAGDEIEDEFSFTLLRSEVNEIRPISSSSTAQILQSDYSALMYERQASNGSIFQFSSP [chain 2 Q20A]	0.75
chain 2 MSIEEEDTNKITCTQAFLHQYFVTERVSIQFGLNNKTVKRINKDEFDKAVNCIMSWTNYPKPGLKRTASTYLLSNSFKKSATVSLPFILGDPVCMPKRVESNNNDTCLLYSDTLYDDPLIQRNDQAGDEIEDEFSFTLLRSEVNEIRPISSSSTAQILQSDYSALMYERQASNGSIFQFSSP [chain 2 D16A]	1.1
chain 2 MSIEEEDTNKITCTQRFLHQYFVTERVSIQFGLNNKTVKRINKDEFDKAVNCIMSWTNYPKPGLKRTASTYLLSNSFKKSATVSLPFILGDPVCMPKRVESNNNDTCLLYSDTLYDDPLIQRNDQAGDEIEDEFSFTLLRSEVNEIRPISSSSTAQILQSDYSALMYERQASNGSIFQFSSP [chain 2 D16R]	0.53
chain 2 MSIEEEDTNKITCTQDFLHQAFVTERVSIQFGLNNKTVKRINKDEFDKAVNCIMSWTNYPKPGLKRTASTYLLSNSFKKSATVSLPFILGDPVCMPKRVESNNNDTCLLYSDTLYDDPLIQRNDQAGDEIEDEFSFTLLRSEVNEIRPISSSSTAQILQSDYSALMYERQASNGSIFQFSSP [chain 2 Y21A]	0.02
chain 2 MSIEEEDTNKITCTQDFLHQYAVTERVSIQFGLNNKTVKRINKDEFDKAVNCIMSWTNYPKPGLKRTASTYLLSNSFKKSATVSLPFILGDPVCMPKRVESNNNDTCLLYSDTLYDDPLIQRNDQAGDEIEDEFSFTLLRSEVNEIRPISSSSTAQILQSDYSALMYERQASNGSIFQFSSP [chain 2 F22A]	0.93
